Reference: patent publication US9937265B2, “Self-assembling peptide and polysaccharide complexes” (University of Leeds, priority 2013, dated 2018)

Tests used:
Format in all cases: physicochemical
[1] = High resolution 1H-NMR study of peptide self-assembly as a function of concentration and time (c*); details: for c*: critical concentration for aggregation, physiological-like solution, with GAG estimated from monomer level at ~5000 μM total peptide
Procedure: High Resolution ^1H-NMR Study of Peptide Self-Assembly as a Function of Concentration
(2,2,3,3-d4)-trimethylsilyl-3-propionic acid (TMSP, chemical shift 0 ppm) an internal reference standard was added to all peptide solutions. NMR data were acquired at room temperature. A pre-saturation program was used to minimize the water peak, and 1024 scans were measured per spectrum. Sample spectra were recorded at various time-points after preparation to ensure the solutions had reached stable equilibrium. The aromatic multiplet at chemical shift 6.9-7.8 ppm was integrated, relative to the reference peak.
High resolution solution ^1H NMR was used to follow the self-assembly of the peptides in physiological-like solutions as a function of time. To measure self-assembly, the line width broadening of the NMR spectra is exploited. The population of peptide in an aggregated state gives rise to spectra that are so broad that they are lost in the baseline; in contrast, the population of peptide in monomeric state gives rise to high resolution spectra. By integrating the splitting pattern arising from the aromatic region and normalising it with respect to the peak observed due to a known standard, the fraction of monomer can be estimated.

[2] = Visual observation of gelation of peptide and peptide:GAG samples (systematic mixing study); details: for Gel appearance: 20 mg/ml (Table 3); for Time to gel 20 mg/ml / time to form a self-supporting gel (gelation time) / Gel lifetime 20 mg/ml / self-assembly and gelation: 20 mg/ml peptide; for c*gel: peptide alone
Procedure: Preparation of Peptide Solutions
Solutions of peptides were prepared directly in either D2O or H2O containing either 130 or 200 mM NaCl or PBS. Peptide concentrations in the millimolar range given for the NMR studies were values multiplied by an appropriate factor to account for the actual percentage peptide content. The samples were vortexed for 20 seconds, and then sonicated for 15 minutes. Solution pD was measured and adjusted to either 7.4 or 6.0±0.5 using a calibrated pH meter and the relation pD =pH meter reading +0.417. Any adjustment of pD, if necessary, was made with minimal μL volumes of either HCl or DCl and/or either NaOH or NaOD. Finally, solution vials were closed, sealed with PTFE tape, and then warmed to approximately 80° C. to maximise peptide solubility. Solutions were left to equilibrate at room temperature.
Preparation of Peptide:Glycosaminoglycan Gels.
The concentration of peptide was kept constant for each sample (20 mg/ml) and the molar ratio of GAG subunit to one peptide was increased. The samples were named by the number of GAG subunits to each peptide present e.g. P11-12:GAG 1:10=one P11-12 peptide monomer to ten GAG dimer subunits. GAG was added to peptide solutions after preparation as stated above. The mixtures were vortexed as heated again to ensure complete mixing.
The effects of mixing chondroitin sulphate GAG with the peptides were investigated. It was hypothesised that the charged GAG chains would interact electrostatically with the charged peptides. To establish whether such an interaction was possible, visual observations of a systematic mixing study was carried out and the morphology of the aggregates formed during mixing studied using TEM. • P11-4: […]

[3] = Rheological study of peptide and peptide:glycosaminoglycan gels (amplitude and frequency sweeps); details: for G′ at 2 Hz 20 mg/ml / G″ at 2 Hz 20 mg/ml: 2 Hz (walking frequency); for G′ at 2 Hz 20 mg/ml / G″ at 2 Hz 20 mg/ml / plateau elastic modulus G′N°: 25° C.; for J, lower limit of the distance between nearest cross links: calculated from plateau elastic modulus by rubber-like elasticity theory, T=298K; for plateau elastic modulus G′N° / Phase angle: peptide gels in PBS at 20 mg/ml; for Phase angle: 25° C. (Table 2)
Procedure: Rheological Study of Peptide:Glycosaminoglycan Gels
Measurements were performed using a cone-plate geometry (cone angle: 1°, diameter: 50 mm, gap: 0.033 mm). All the tests were performed at 25° C., utilizing a solvent trap and the atmosphere within was kept saturated to minimize evaporation of the peptide samples. To ensure the measurements were made in the linear viscoelastic regime (LVER), amplitude sweeps were performed in a shear strain controlled mode from 0.01-100%. Two amplitude sweeps were carried out for each sample (1 Hz and 20 Hz) and a strain level was chosen at which the elastic modulus (G′) and viscous modulus (G″) were independent of strain amplitude at the two different frequency levels. The dynamic moduli of the hydrogels were measured as a frequency function with the sweeps carried out between 1 and 20 Hz. Samples were allowed to equilibrate for 15 minutes once loaded prior to the start of testing. Fresh samples were used for the amplitude and frequency sweeps. After the frequency sweeps, two more amplitude weeps (1 Hz and 20 Hz) were carried out in a stress controlled mode to confirm the testing was performed within the LVER. The stress range was chosen based on the stress values from the frequency sweeps at 1 and 20 Hz: if these two values were then independent of stress amplitude, then this confirmed that testing was within the LVER.
Tests were conducted to provide a peptide gel of similar stiffness to that of the nucleus pulposus. Rheometry was carried out on the peptide gels in PBS at 20 mg/ml. Amplitude sweeps were first carried out to determine the LVER region.
The rheological properties of the peptide:GAG samples were examined and compared to the rheological properties of peptides alone to establish how the addition of GAG affected the material properties of the gels. The frequency sweeps from the study (data not shown) for the various peptide:GAG combinations can be summarized as follows: P11-4: GAG and viscous modulus vs. frequency, starting frequency 1 Hz, end frequency: 20 Hz, strain controlled: 0.15% (control), 0.175% (1:2) and 0.04% (1:10). Temp: 25° C. 20 days old. P11-8:GAG elastic and viscous modulus vs. frequency, starting frequency 1 Hz, end frequency: 20 Hz, Strain controlled: 0.1% (1:2 and 1:10), Temp: 25° C., 1.5 months old. P11-9:GAG elastic and viscous modulus vs. frequency, starting frequency 1 Hz, end frequency: 20 Hz, Strain controlled: 0.5%, Temp: 25° C. P11-12:GAG Elastic and viscous modulus vs. frequency, starting frequency 1 Hz, end frequency: 20 Hz, Strain controlled: 0.25% (1:0.5), 0.1% (1:2), 0.05% (1:10), 0.15% (1:100), Temp: 25° C. 1:0.5, 1:2 and 1:10 2 months old and 1:100 6 days old. • P11-4: […]

[4] = Peptide dissolution from gel into supernatant (UV spectroscopy, 279 nm); details: at 3-4 days, 20 mg/ml gel
Procedure: 2.5 ml of 130 mM NaCl, D2O, pD 7.4 supernatant was added on top of the SAP:GAG gels. The concentration of peptide dissolved into the supernatant as a function of time was determined via UV spectroscopy. The UV wavelength of 279 nm corresponds to the […] of the tryptophan residue, found in position 6 of the SAP, and so this can be used to determine the molar concentration of the peptide taking into account the molar extinction coefficient of the tryptophan residue.

Row | Substance | c* [1] [µM] | Gel appearance [2] | Time to gel 20 mg/ml [2] | time to form a self-supporting gel (gelation time) [2] | Gel lifetime 20 mg/ml ([2]; yr and mths or words printed in the cell) | c*gel [2] [µM] | G′ at 2 Hz 20 mg/ml [3] | G″ at 2 Hz 20 mg/ml [3] [Pa] | J, lower limit of the distance between nearest cross links [3] [nm] | plateau elastic modulus G′N° [3] | Phase angle [3] [°] | self-assembly and gelation [2] | Gel lifetime 20 mg/ml ([2]; unit in cell beside) [mth] | gel state on storage ([2]; after a year) | time to reach equilibrium state of self-assembly ([1]; 1H NMR aromatic integral vs time, without GAG) | peptide dissolved from the gel [4] [%] | gel stiffness / moduli compared, in words ([3]; frequency sweeps, compared with peptide alone or other gels)
1 | CH3CO-Q-Q-R-F-O-W-O-F-E-Q-Q-NH2 (QQRFXWXFEQQ; HELM PEPTIDE1{[ac].Q.Q.R.F.[Orn].W.[Orn].F.E.Q.Q.[am]}$$$$V2.0; SMILES CC(=O)N[C@@H](CCC(N)=O)C(=O)N[C@@H](CCC(N)=O)C(=O)N[C@@H](CCCNC(=N)N)C(=O)N[C@@H](Cc1ccccc1)C(=O)N[C@@H](CCCN)C(=O)N[C@@H](Cc1c[nH]c2ccccc12)C(=O)N[C@@H](CCCN)C(=O)N[C@@H](Cc1ccccc1)C(=O)N[C@@H](CCC(=O)O)C(=O)N[C@@H](CCC(N)=O)C(=O)N[C@@H](CCC(N)=O)C(N)=O) [Peptide P11-8] | 400 ± 100 | Inhomogenous | days | days | Still some self- | 2000 ± 600 | 4,881 Pa | 552 | 11.6 | 5,221 kg m^−1s^−2 | ~8 |  |  |  |  |  | 
2 | CH3CO-Q-Q-O-F-O-W-O-F-O-Q-Q-NH2 (QQXFXWXFXQQ; HELM PEPTIDE1{[ac].Q.Q.[Orn].F.[Orn].W.[Orn].F.[Orn].Q.Q.[am]}$$$$V2.0; SMILES CC(=O)N[C@@H](CCC(N)=O)C(=O)N[C@@H](CCC(N)=O)C(=O)N[C@@H](CCCN)C(=O)N[C@@H](Cc1ccccc1)C(=O)N[C@@H](CCCN)C(=O)N[C@@H](Cc1c[nH]c2ccccc12)C(=O)N[C@@H](CCCN)C(=O)N[C@@H](Cc1ccccc1)C(=O)N[C@@H](CCCN)C(=O)N[C@@H](CCC(N)=O)C(=O)N[C@@H](CCC(N)=O)C(N)=O) [Peptide P11-14] | >3600 | Clear liquid | never |  |  |  |  |  |  |  |  | does not self-assemble |  |  |  |  | 
3 | CH3CO-Q-Q-R-F-E-W-E-F-E-Q-Q-NH2 (Ac-QQRFEWEFEQQ-NH2) [Peptide P11-4] | 310 ± 140 | Slightly cloudy | mins-hours | hours |  | 2000 ± 600 | 1,065 Pa | 205 |  |  |  |  | >1 |  |  |  | 
4 | CH3CO-S-S-R-F-E-W-E-F-E-S-S-NH2 (Ac-SSRFEWEFESS-NH2) [Peptide P11-9] | 1160 ± 175 | Clear self- | minutes | minutes |  | 4500 ± 1500 | 8 Pa | 5 |  |  |  |  |  | still a self-supporting gel |  |  | 
5 | CH3CO-O-Q-O-F-O-W-O-F-O-Q-O-NH2 [Peptide P11-28] | >3100 | Clear liquid | never |  |  |  |  |  |  |  |  | does not self-assemble |  |  |  |  | 
6 | CH3CO-S-S-R-F-O-W-O-F-E-S-S-NH2 (SSRFXWXFESS; HELM PEPTIDE1{[ac].S.S.R.F.[Orn].W.[Orn].F.E.S.S.[am]}$$$$V2.0; SMILES CC(=O)N[C@@H](CO)C(=O)N[C@@H](CO)C(=O)N[C@@H](CCCNC(=N)N)C(=O)N[C@@H](Cc1ccccc1)C(=O)N[C@@H](CCCN)C(=O)N[C@@H](Cc1c[nH]c2ccccc12)C(=O)N[C@@H](CCCN)C(=O)N[C@@H](Cc1ccccc1)C(=O)N[C@@H](CCC(=O)O)C(=O)N[C@@H](CO)C(=O)N[C@@H](CO)C(N)=O) [Peptide P11-12] | 2300 ± 750 | Cloudy self- | minutes | minutes |  | 2300 ± 750 | 20,510 Pa | 3067 | 7.2 | 22,285 kg m^−1s^−2 | ~9 |  |  |  | around 1 month | 39.9±9.15 | forms the stiffest gel
